Measured values reported in publication PMC4600761.

Experiments:
[1] = target: Syx-mtq2 (mTurquoise2 fused to the C terminus of syntaxin1A) (rat) (UniProt P32851); assay: FRET or BRET; two-photon FLIM, A1 fraction; Schaffer collateral boutons in rat hippocampal slice culture, probes by AAV1, during 300 mM sucrose stimulation
[2] = target: Syx-mtq2 (mTurquoise2 fused to the C terminus of syntaxin1A) (rat) (UniProt P32851); assay: FRET or BRET; two-photon FLIM, A1 fraction; Schaffer collateral boutons and axons in the CA1 region of rat hippocampal slice culture, probes by AAV1, resting
[3] = target: Syx-mtq (mTurquoise fused to the C terminus of syntaxin1A) (rat) (UniProt P32851); assay: FRET or BRET; two-photon FLIM, time-lapse (18 s accumulation); rat cortical neurons in dissociated culture during 300 mM sucrose stimulation; A1 from decay curve fitting or from average lifetime (τ1 0.5 ns assumed)
Chain of Syx-mtq (mTurquoise fused to the C terminus of syntaxin1A) (rat) (P32851 whole entry, the tested form may be a part): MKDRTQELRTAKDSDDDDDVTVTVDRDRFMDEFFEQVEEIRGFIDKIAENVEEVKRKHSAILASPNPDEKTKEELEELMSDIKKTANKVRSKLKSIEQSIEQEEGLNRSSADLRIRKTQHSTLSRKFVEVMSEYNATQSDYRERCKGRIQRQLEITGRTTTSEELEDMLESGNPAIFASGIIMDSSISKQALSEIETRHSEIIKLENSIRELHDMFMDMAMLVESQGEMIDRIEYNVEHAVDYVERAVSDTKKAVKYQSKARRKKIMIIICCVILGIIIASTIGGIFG

[4] = target: Syx-mtq (mTurquoise fused to the C terminus of syntaxin1A) (rat) (UniProt P32851); assay: FRET or BRET; two-photon FLIM of the mtq donor; fast decay component (A1 fraction) taken as the binding fraction of the donor; live rat cortical neurons in dissociated culture, lipofected, resting; boutons and axons
[5] = target: mtq-SNAP25b (mTurquoise fused to the N terminus of synaptosomal-associated protein 25b) (mouse) (UniProt P60879); assay: FRET or BRET
Chain of mtq-SNAP25b (mTurquoise fused to the N terminus of synaptosomal-associated protein 25b) (mouse) (P60879 whole entry, the tested form may be a part): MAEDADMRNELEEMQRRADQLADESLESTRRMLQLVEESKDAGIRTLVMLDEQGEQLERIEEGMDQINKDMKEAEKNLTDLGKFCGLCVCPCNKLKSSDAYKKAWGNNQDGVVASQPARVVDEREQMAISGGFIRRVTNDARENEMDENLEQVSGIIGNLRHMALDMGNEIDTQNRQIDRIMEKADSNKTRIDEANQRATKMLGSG

[6] = target: mtq-Syx (mTurquoise fused to the N terminus of syntaxin1A) (rat) (UniProt P32851); assay: FRET or BRET
Chain of mtq-Syx (mTurquoise fused to the N terminus of syntaxin1A) (rat) (P32851 whole entry, the tested form may be a part): as the sequence (P32851 whole entry, the tested form may be a part) above

[7] = target: mtq-SNAP25b (mTurquoise fused to the N terminus of synaptosomal-associated protein 25b) (mouse) (UniProt P60879); assay: FRET or BRET; two-photon FLIM, A1 fraction; plasma membrane of β cells in mouse islets of Langerhans, probes by lentivirus, resting state
[8] = target: mtq-Syx (mTurquoise fused to the N terminus of syntaxin1A) (rat) (UniProt P32851); assay: as above
[9] = target: mtq2-Syx (mTurquoise2 fused to the N terminus of syntaxin1A) (rat) (UniProt P32851); assay: FRET or BRET; two-photon FLIM, A1 fraction; Schaffer collateral boutons and axons in the CA1 region of rat hippocampal slice culture, probes by AAV1, resting
Chain of mtq2-Syx (mTurquoise2 fused to the N terminus of syntaxin1A) (rat) (P32851 whole entry, the tested form may be a part): as above

[10] = target: mtq-Syx (mTurquoise fused to the N terminus of syntaxin1A) (rat) (UniProt P32851); assay: FRET or BRET; two-photon FLIM, A1 fraction; rat cortical neurons in dissociated culture after chemical fixation and counterstaining with anti-synaptophysin antibody
[11] = target: mtq-SNAP25b (mTurquoise fused to the N terminus of synaptosomal-associated protein 25b) (mouse) (UniProt P60879); assay: FRET or BRET; two-photon FLIM, time-lapse (1.8 s), A1 from average lifetime (τ1 0.5 ns assumed); β cells in mouse islets stimulated with 16 mM glucose, region of 0.5 μm diameter around single exocytotic events
[12] = target: mtq-SNAP25b (mTurquoise fused to the N terminus of synaptosomal-associated protein 25b) (mouse) (UniProt P60879); assay: FRET or BRET; two-photon FLIM of the mtq donor; fast decay component (A1 fraction) taken as the binding fraction of the donor; live rat cortical neurons in dissociated culture, lipofected, resting; boutons and axons
[13] = target: mtq-Syx (mTurquoise fused to the N terminus of syntaxin1A) (rat) (UniProt P32851); assay: as above

Chain of Syx-mtq2 (mTurquoise2 fused to the C terminus of syntaxin1A) (rat) (P32851 whole entry, the tested form may be a part): as above

Work on “VAMP2-Ven (Venus fused to the C terminus of VAMP2) (from UniProt P63045 1-116) (natural protein)” yielded an A1 fraction (FRET of cis-complexes), boutons, during sucrose stimulation [1] of 13.6%, an A1 fraction (FRET of cis-complexes), boutons, resting state [2] of 3.7% and an increase in the A1 fraction in boutons on 300 mM sucrose (average lifetime) [3] of 12.9%. The increase in the A1 fraction in boutons on 300 mM sucrose (decay curve fitting) [3] was 11.8%, the A1 fraction (binding fraction, cis-complex), axons [4] was 21.5% and the A1 fraction (binding fraction, cis-complex), boutons [4] was 24.7%.
“Ven-VAMP2 (Venus fused to the N terminus of vesicle-associated membrane protein 2) (from UniProt P63045 1-116) (natural protein)” was tested, and the other [5] was 14.5%, the other [6] was 16.3% and the A1 fraction (binding fraction), plasma membrane of resting β cells [7] was under 2%. It also gave an A1 fraction (binding fraction), plasma membrane of resting β cells [8] of under 2%, a mean trans-SNARE fraction in boutons (A1b−A1a) [9] of 11.9% and a trans-SNARE fraction in the active zone (A1s–A1a), spines with volumes >0.25 [9] of 27.7%. The A1 fraction (binding fraction), boutons, after fixation [10] was 33.2%, the A1 fraction (binding fraction), pixels in axons [10] was 15.6% and the A1 fraction (binding fraction), pixels of boutons negative for synaptophysin [10] was 17.4%. It also gave an A1 fraction (binding fraction), pixels of boutons positive for synaptophysin [10] of 38.8%, a peak A1 fraction (binding fraction) before single exocytotic events, averaged traces of 61 events, 16 mM glucose [11] of 8.3% and an A1 fraction (binding fraction), axons [12] of 22.7%. For the same substance, the A1 fraction (binding fraction), boutons [12] was 36.7%, the A1 fraction (binding fraction), axons [13] was 22.4% and the A1 fraction (binding fraction), boutons, live [13] was 34.1%. For the same substance, the trans-SNARE fraction in each bouton (A1b−A1a) [13] was 11.6%.
